{
  "source": "paper PMC4253524",
  "about": "(The EMBO Journal, 2014)",
  "target": "T1, Flag-tagged RelishΔS29-S45 (Drosophila melanogaster, UniProt Q94527 1-971, ΔS29-S45)",
  "T1 sequence (looked up)": "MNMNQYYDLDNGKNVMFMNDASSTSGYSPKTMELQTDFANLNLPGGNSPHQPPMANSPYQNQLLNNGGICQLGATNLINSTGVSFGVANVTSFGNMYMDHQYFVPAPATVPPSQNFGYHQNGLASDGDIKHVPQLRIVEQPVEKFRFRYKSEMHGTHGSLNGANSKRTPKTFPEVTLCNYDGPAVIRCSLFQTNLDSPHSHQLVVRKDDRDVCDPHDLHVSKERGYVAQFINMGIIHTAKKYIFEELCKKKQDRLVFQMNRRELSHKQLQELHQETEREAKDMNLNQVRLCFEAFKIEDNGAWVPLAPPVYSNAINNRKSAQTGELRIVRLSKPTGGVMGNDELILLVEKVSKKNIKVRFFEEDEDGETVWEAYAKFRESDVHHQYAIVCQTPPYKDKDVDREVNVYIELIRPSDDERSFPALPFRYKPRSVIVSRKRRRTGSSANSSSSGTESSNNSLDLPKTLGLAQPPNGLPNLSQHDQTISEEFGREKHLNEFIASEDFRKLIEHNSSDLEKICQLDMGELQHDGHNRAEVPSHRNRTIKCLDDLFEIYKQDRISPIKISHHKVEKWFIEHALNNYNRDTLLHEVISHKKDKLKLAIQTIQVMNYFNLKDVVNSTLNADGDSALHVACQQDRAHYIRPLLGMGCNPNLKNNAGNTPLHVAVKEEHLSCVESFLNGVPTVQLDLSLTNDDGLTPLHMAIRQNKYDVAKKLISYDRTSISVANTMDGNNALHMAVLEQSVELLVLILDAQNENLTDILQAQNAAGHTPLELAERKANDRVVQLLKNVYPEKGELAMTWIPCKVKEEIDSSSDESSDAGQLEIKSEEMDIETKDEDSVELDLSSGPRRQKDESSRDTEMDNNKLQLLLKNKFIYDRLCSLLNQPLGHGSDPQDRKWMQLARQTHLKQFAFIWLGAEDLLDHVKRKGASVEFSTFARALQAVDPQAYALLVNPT",
  "experiment": "co-IP",
  "data": [
    {"binder": "His-tagged Akirin (natural protein, Drosophila melanogaster, UniProt Q9VS59 1-201, looked up) MACATLKRALDWESMNQRPPKRRRCNPFGQAGSNAGPASPSRDGPSTSAGLPHTPSNRFAKDSTEPSPFSESSLAKMSPDKMAESLCNEIKRLHKRKQLPITSSALERMQDSESSGSEMGPESPRRPDSPQNLMRHGEKALFTFKQVQLICESMIKERENQLRERYESVLTTKLAEQYDAFVKFTYDQIQRRYEAAPSYLS", "values": [
      {"measurement": "binding result", "result": "binds"}
    ]}
  ]
}
